Test results taken from patent publication US20160237160A1 (Bayer, published 2016).

Key:
[1] = target: T1, TWEAKR (TNFRSF12A, FN14), human, on tumor cell lines (human, UniProt Q9NP84 28-129); assay: FACS, A375 cells, 10 ug/ml
T1 construct: endogenous receptor on human cancer cell lines; also called TWEAK receptor; CD266
Procedure: (§1) To determine the binding characteristics of the anti-TWEAKR antibodies on mouse and human cancer cell lines, binding was tested by flow cytometry to a panel of cell lines. […] Cells were suspended at approximately 10⁵ cells/well in FACS buffer (PBS without Ca/Mg, containing 3% FCS, Biochrom). Cells were centrifuged (250 g, 5 min, 4° C.) and supernatant discarded. Cells were resuspended in dilutions of the antibodies of interest (10 μg/ml in 80 μl if not indicated otherwise) in FACS buffer, and incubated on ice for 1 h. […] After incubation for 1 h on ice cells were again washed with cold FACS buffer, resuspended in 1000 FACS buffer and analyzed by flow cytometry using a FACS-Array (BD Biosciences). Results are calculated as Geo Mean of fluorescence detected by the antibody of interest subtracted by background fluorescence as measured by detection with the secondary antibody alone. Values are scored according to the following system: Geo Mean−Geo Mean of secondary antibody alone >10: +, >100: ++, >1000: +++, 10000: ++++, close to category border in ( ).

[2] = target: TPP-1990 (hTNFRSF12Aaa28-80-L65Q-hIgG1-Fc) (human); assay: ELISA, TWEAKR-Fc coated 62 ng/ml, biotin-IgG titrated; + means IC50 1 to 150 pM;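 note: biotinylated IgG binding to immobilized TWEAKR-Fc muteins, detected with Streptavidin-HRP and Amplex Red, IC50 derived from fitted dose-response curves of twofold serial dilutions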
Procedure: (§2) To collect dose-response data, the different TWEAKR-Fc muteins were coated with a low concentration (62 ng/ml) in a 384-well Maxisorb ELISA plate and a serial 2fold dilution of biotinylated IgG starting with a concentration of 100 nM was used as soluble binding partner. Detection was done with Streptavidin-HRP and Amplex Red.
(§3) The dose-response data were fitted and IC50s determined.

[3] = target: TPP-1987 (hTNFRSF12Aaa28-80-S40R-hIgG1-Fc) (human); assay: as above
Procedure: as §2, §3

[4] = target: TPP-1989 (hTNFRSF12Aaa28-80-H60K-hIgG1-Fc) (human); assay: as above
Procedure: as §2, §3

[5] = target: TPP-1988 (hTNFRSF12Aaa28-80-M50A-hIgG1-Fc) (human); assay: as above
Procedure: as §2, §3

[6] = target: TPP-1986 (hTNFRSF12Aaa28-80-T33Q-hIgG1-Fc) (human); assay: as above
Procedure: as §2, §3

[7] = target: TPP-2683 (hTNFRSF12Aaa28-80-R56P-hIgG1-Fc) (human); assay: as above
Procedure: as §2, §3

[8] = target: T2, TPP-2305 (hTNFRSF12Aaa28-80) (Human, UniProt Q9NP84 28-80); assay: SPR (Biacore T100), IgG captured, TPP-2305 injected, 1:1 model
T2 construct: monomeric extracellular domain, bought; also called purified recombinant human TWEAKR protein; soluble monomeric TWEAKR

[9] = target: T1, TWEAKR (TNFRSF12A, FN14), human, on …; assay: FACS, 786-O cells, 10 ug/ml
Procedure: as §1

[10] = target: T1, TWEAKR (TNFRSF12A, FN14), human, on …; assay: FACS, SKOV-3 cells, 10 ug/ml
Procedure: as §1

[11] = target: T3, TPP-2608 (TweakR-ECD-34-68-hIgGFc-His-R38A) (human); assay: ELISA, IgG coated 1 ug/ml, HEK293 supernatant titrated
T3 construct: used as HEK293 supernatant
Procedure: (§4) These TWEAKR(34-68)-Fc muteins were expressed in HEK293 cells. To collect dose-response data, IgGs were coated at a concentration of 1 μg/ml in a 384-well Maxisorp ELISA plate and a serial 2fold dilution of the TWEAKR mutein containing supernatant was used as soluble binding partner. Detection was done with anti-HIS-HRP and Amplex Red.

[12] = target: T4, TPP-2624 (TweakR-ECD-34-68-hIgGFc-His-F63A) (human); assay: as above
T4 construct: used as HEK293 supernatant
Procedure: as §4

[13] = target: T5, TPP-2613 (TweakR-ECD-34-68-hIgGFc-His-D45A) (human); assay: as above
T5 construct: used as HEK293 supernatant
Procedure: as §4

[14] = target: T6, TPP-2607 (TweakR-ECD-34-68-hIgGFc-His-S37A) (human); assay: as above
T6 construct: used as HEK293 supernatant
Procedure: as §4

[15] = target: T7, TPP-2615 (TweakR-ECD-34-68-hIgGFc-His-K48A) (human); assay: as above
T7 construct: used as HEK293 supernatant
Procedure: as §4

[16] = target: T8, TPP-2619 (TweakR-ECD-34-68-hIgGFc-His-R58A) (human); assay: as above
T8 construct: used as HEK293 supernatant
Procedure: as §4

[17] = target: T9, TPP-2617 (TweakR-ECD-34-68-hIgGFc-His-S54A) (human); assay: as above
T9 construct: used as HEK293 supernatant
Procedure: as §4

[18] = target: T10, TPP-2625 (TweakR-ECD-34-68-hIgGFc-His-L65A) (human); assay: as above
T10 construct: used as HEK293 supernatant
Procedure: as §4

[19] = target: TPP-2610 (TweakR-ECD-34-68-hIgGFc-His-S41A) (human); assay: as above
Procedure: as §4

[20] = target: T11, TPP-2616 (TweakR-ECD-34-68-hIgGFc-His-D51A) (human); assay: as above
T11 construct: used as HEK293 supernatant
Procedure: as §4

[21] = target: T1, TWEAKR (TNFRSF12A, FN14), human, on …; assay: FACS, NCI-H322 cells, 10 ug/ml
[22] = target: T1, TWEAKR (TNFRSF12A, FN14), human, on …; assay: cell-based or functional assay
[23] = target: T1, TWEAKR (TNFRSF12A, FN14), human, on …; assay: FACS, HT29 cells, 10 ug/ml
Procedure: as §1

[24] = target: T1, TWEAKR (TNFRSF12A, FN14), human, on …; assay: FACS, WiDr cells, 10 ug/ml
Procedure: as §1

[25] = target: T12, TPP-2202 (TWEAKR-ECD-28-80-hIgGFc-His) (human); assay: ELISA, TPP-2202 coated at 1 µg/ml, biotinylated IgG at 0.08 µg/ml (open bar) and 0.3 µg/ml (filled bar), Streptavidin-HRP, Amplex Red
T12 construct: dimeric; also called TWEAKR-Fc fusion protein; full ectodomain 28-80
T12 sequence (chain, as listed by the source limits assumed): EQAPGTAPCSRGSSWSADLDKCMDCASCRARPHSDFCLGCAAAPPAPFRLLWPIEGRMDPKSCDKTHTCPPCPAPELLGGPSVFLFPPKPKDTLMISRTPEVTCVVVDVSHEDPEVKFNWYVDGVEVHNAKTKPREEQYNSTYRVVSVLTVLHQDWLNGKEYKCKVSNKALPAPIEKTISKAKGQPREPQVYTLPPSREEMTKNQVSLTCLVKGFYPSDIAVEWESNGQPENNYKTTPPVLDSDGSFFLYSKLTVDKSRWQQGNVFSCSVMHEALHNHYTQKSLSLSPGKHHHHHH
Procedure: Detection was done with Streptavidin-HRP and Amplex-Red substrate.
To analyze for binding, 1 μg/ml of the respective dimeric TWEAKR-Fc construct were coated and, 0.3 μg/ml and 0.08 μg/ml of biotinylated IgG were used as soluble binding partner. Detection was done with Streptavidin-HRP and Amplex-Red substrate.

[26] = target: T1, TWEAKR (TNFRSF12A, FN14), human, on …; assay: cell-based or functional assay; remark: listed apart in the source

Row | GeoMean of Fluorescence minus GeoMean with the secondary antibody only [1] | binding result [2] | binding result [3] | binding result [4] | binding result [5] | binding result [6] | binding result [7] | Kd [8] | GeoMean of Fluorescence minus GeoMean with the secondary antibody only [9] | GeoMean of Fluorescence minus GeoMean with the secondary antibody only [10] | GeoMean of Fluorescence minus GeoMean with the secondary antibody only [21] | IL-8 release from A375 cells at 100 ug/ml, % of the activation by 300 ng/ml TWEAK ligand [22] | GeoMean of Fluorescence minus GeoMean with the secondary antibody only [23] | GeoMean of Fluorescence minus GeoMean with the secondary antibody only [24] | binding result [25] | % Inhibition of proliferation, 786-O cells, 96h, 100 ug/ml [26] | % Inhibition of proliferation, A253 cells, 72h, 100 ug/ml [26] | % Inhibition of proliferation, HT-29 cells, 24h, 100 ug/ml [26] | Binder | further results
1 | 1580 | binds | binds | binds | binds | binds | binds | 2.3 nM | 30200 | 5970 | 978 | 29% | 3670 | 5920 | binds | 29% | 37% | -10% | P4A8(TPP-1324) (antibody, human IgG1, kappa, V domains shown, Human IgG1; variable domains from WO2009/140177 with constant region added) VH: QVQLVQSGAEVKKPGASVKVSCKGSGYTFTDYGMHWVRQAPGQGLEWMGVISTYNGYTNYNQKFKGRVTMTVDKSTSTAYMELRSLRSDDTAVYYCARAYYGNLYYAMDYWGQGTLVTVSS VL: DIVLTQSPASLAVSLGQRATISCRASKSVSTSSYSYMHWYQQKPGQPPKLLIKYASNLESGVPARFSGSGSGTDFSLNIHPMEEDDTAMYFCQHSRELPFTFGGGTKLEIKR | koff [8]: 0.0027 s⁻¹; kon [8]: 1.2e+06 M⁻¹ s⁻¹; binding result [11]: no binding; binding result [12]: no binding; binding result [13]: no binding; binding result [14]: no binding; binding result [15]: no binding; binding result [16]: no binding; binding result [17]: no binding; binding result [18]: no binding; binding result [19]: no binding; binding result [20]: no binding; % Inhibition of proliferation, WiDr cells, 96h, 100 ug/ml [26]: 4%
2 | 561 | binds | binds | binds | binds | binds | binds | 12.4 nM | 20300 | 2870 | 291 | 103% | 1420 | 2420 | binds | 71% | 99% | > 100% | TPP-2090 (antibody, human IgG1, kappa, V domains shown, Human IgG1) VH: EVQLLESGGGLVQPGGSLRLSCAASGFTFSPYPMIWVRQAPGKGLEWVSYISPSGGSTHYADSVKGRFTISRDNSKNTLYLQMNSLRAEDTAVYYCARGGDTYFDYFDYWGQGTLVTVSS VL: DIQMTQSPSSLSASVGDRVTITCRASQSISGYLNWYQQKPGKAPKLLIYQASSLQSGVPSRFSGSGSGTDFTLTISSLQPEDFATYYCQQSYTSPFITFGQGTKVEIKR | 
